In paper PMC8513623:
pKd: −log10 of the molar value.

Assays:
[1] = target: Bin1b SH3 domain (zebrafish), N-terminally His-tagged (zebrafish); experiment: ITC
[2] = target: Full-length zebrafish Cavin4b (Cavin4b-FL), His-ubiquitin tagged (zebrafish) (UniProt Q5PQY9); experiment: ITC

Substance | pKd [1] | pKd [2]
Cavin4b PRD peptide (zebrafish Cavin4b proline-rich peptide) (from UniProt Q5PQY9 271-286) | 4.21 | 
Chikungunya virus (CHIKV) proline-rich peptide | 7.05 | 
Bin1b SH3 domain (zebrafish), N-terminally His-tagged (domain or fragment) |  | 4.25
